According to paper PMC3138255 (The Journal of Biological Chemistry, 2011):
Positions count from the first letter of the chain named. In names and notes the source's numbering stands. Blank lines part the entries; values can stand above or below the molecule they belong to.

How the values were obtained:
[1] = target: Rnd1 GTPase, wild type, construct of this paper (UniProt Q92730); assay: Isothermal titration calorimetry; settings: pH 7.0, 25 °C, 50 mM NaCl, 4 mM MgCl2, 50 mM phosphate buffer
[2] = target: Rnd1 GTPase (residues 5-200), loaded with GMPPNP (UniProt Q92730); assay: ITC + SPR
[3] = target: Rnd2 GTPase (residues 1-227), loaded with GMPPNP (UniProt P52198); assay: ITC + SPR
[4] = target: Rnd1 GTPase as used in the quoted work (ref 39, Hota & Buck 2009) (UniProt Q92730); assay: Not stated in this article; settings: cited from earlier work
Rnd1 GTPase as used in the quoted work (ref 39, Hota & Buck 2009), sequence (Q92730 whole entry, the tested form may be a part): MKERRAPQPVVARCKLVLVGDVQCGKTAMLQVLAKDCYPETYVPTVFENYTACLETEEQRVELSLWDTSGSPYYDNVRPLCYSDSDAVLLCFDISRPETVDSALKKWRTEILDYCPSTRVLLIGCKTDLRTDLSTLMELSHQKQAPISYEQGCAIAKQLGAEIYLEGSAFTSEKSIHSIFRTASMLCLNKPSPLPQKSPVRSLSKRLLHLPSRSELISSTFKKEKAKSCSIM

[5] = target: T1, Rnd1 GTPase (residues 5-200), loaded with GMPPNP (UniProt Q92730 5-200); assay: ITC
T1 sequence (looked up): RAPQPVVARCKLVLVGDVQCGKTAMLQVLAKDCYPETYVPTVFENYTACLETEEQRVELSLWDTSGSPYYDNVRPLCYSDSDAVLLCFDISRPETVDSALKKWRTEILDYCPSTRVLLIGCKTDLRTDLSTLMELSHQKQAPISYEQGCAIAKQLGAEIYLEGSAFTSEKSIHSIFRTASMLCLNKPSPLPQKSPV

[6] = target: T2, Rnd2 GTPase (residues 1-227), loaded with GMPPNP (UniProt P52198 1-227); assay: ITC
T2 sequence (looked up): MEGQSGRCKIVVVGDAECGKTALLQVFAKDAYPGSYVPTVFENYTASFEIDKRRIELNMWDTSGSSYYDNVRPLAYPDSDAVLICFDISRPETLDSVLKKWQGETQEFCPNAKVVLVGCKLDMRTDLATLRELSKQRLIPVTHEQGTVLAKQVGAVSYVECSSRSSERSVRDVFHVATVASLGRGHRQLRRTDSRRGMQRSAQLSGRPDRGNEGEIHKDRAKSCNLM

Rnd1 GTPase Y114F = target: T3, Rnd1 GTPase Y114F (UniProt Q92730 5-200, Y114F); assay: ITC
T3 sequence (looked up): T1 sequence (looked up) with Y110F

SEC = target: the molecule itself; assay: SEC

Rnd1 GTPase, wild type, construct of this paper, sequence (Q92730 whole entry, the tested form may be a part): as the sequence (Q92730 whole entry, the tested form may be a part) above

Kd [2]: > 50 µM | Kd [3]: > 50 µM
Molecule: plexin-C1 Rho GTPase binding domain (RBD), residues 1198-1305 (from UniProt O60486 1198-1305) (domain or fragment)

Ka [5]: 360000 M⁻¹ | Kd [5]: 2.6 µM | dH [5]: -3.4 kcal/mol | Ka [6]: 120000 M⁻¹ | Kd [6]: 8.3 µM | dH [6]: -1.5 kcal/mol
B2: plexin-C1 RBD T1264V/R1265V (domain or fragment)
chain: TVALNVVFEKIPENESADVCRNISVNVLDCDTIGQAKEKIFQAFLSKNGSPYGLQLNEIGLELQMGVVQKELLDIDSSSVILEDGITKLNTIGHYEISNGSTIKVFKK

Ka [5]: 70000 M⁻¹ | Kd [5]: 14.1 µM | dH [5]: -1.4 kcal/mol | Ka [6]: 90000 M⁻¹ | Kd [6]: 9.8 µM | dH [6]: -1.6 kcal/mol
B4: plexin-B1 RBD L1815Y (domain or fragment)
chain: YRPLTLNALLAVGPGAGEAQGVPVKVLDCDTISQAKEKMLDQLYKGVPLTQRPDPRTLDVEWRSGVAGHYILSDEDVTSEVQGLWRRLNTLQHYKVPDGATVALVPC

Ka [6]: 80000 M⁻¹ | Kd [6]: 20 µM | dH [6]: -3.2 kcal/mol
B5: plexin-B1 RBD L1815K (domain or fragment)
chain: B4 chain with Y70K

Ka [6]: 60000 M⁻¹ | Kd [6]: 16.6 µM | dH [6]: -0.4 kcal/mol
B7: plexin-D1 Rho GTPase binding domain (RBD), residues 1553-1678 (domain or fragment, human, UniProt Q9Y4D7 1553-1678, looked up)
chain: AKPRNLNVSFQGCGMDSLSVRAMDTDTLTQVKEKILEAFCKNVPYSQWPRAEDVDLEWFASSTQSYILRDLDDTSVVEDGRKKLNTLAHYKIPEGASLAMSLIDKKDNTLGRVKDLDTEKYFHLVL

Ka [5]: 50000 M⁻¹ | Kd [5]: 20 µM | dH [5]: 1.3 kcal/mol | Ka [6]: 130000 M⁻¹ | Kd [6]: 7.7 µM | dH [6]: -1.4 kcal/mol
B8: plexin-D1 RBD S1614V/T1615A (domain or fragment)
chain: B7 chain with S62V, T63A

Ka (Rnd1 GTPase Y114F): 100000 M⁻¹ | Kd (Rnd1 GTPase Y114F): 10 µM | dH (Rnd1 GTPase Y114F): -4.1 kcal/mol | Ka [5]: 140000 M⁻¹ | Kd [5]: 7 µM | dH [5]: -8 kcal/mol | Ka [6]: 90000 M⁻¹ | Kd [6]: 10.7 µM | dH [6]: -1.2 kcal/mol
B9: plexin-A2 Rho GTPase binding domain (RBD), residues 1490-1600 (domain or fragment, human, UniProt O75051 1490-1600, looked up)
chain: LIRQQIEYKTLILNCVNPDNENSPEIPVKVLNCDTITQVKEKILDAVYKNVPYSQRPRAVDMDLEWRQGRIARVVLQDEDITTKIEGDWKRLNTLMHYQVSDRSVVALVPK
stoichiometry N (SEC): 2

Continued, molecule first:

Molecule: Plexin-B1 Rho GTPase binding domain (RBD), wild type, construct of this paper
Ka [1]: 1.8 10^5 M^-1 | Kd [1]: 5.5 µM | ΔG [1]: -7.1 kcal/mol

Molecule: Plexin-B1 RBD as used in the quoted work (ref 39, Hota & Buck 2009)
Kd ([4]; pH 6.4): ∼3.1 μM | Kd ([4]; pH 6.8): ∼5.5 μM

B1: plexin-C1 RBD K1267L (domain or fragment)
chain: B2 chain with V67T, V68R, K70L
Ka [5]: 100000 M⁻¹ | Kd [5]: 10 µM | dH [5]: -1.9 kcal/mol | Ka [6]: 90000 M⁻¹ | Kd [6]: 11.1 µM | dH [6]: -0.6 kcal/mol

B3: plexin-B1 Rho GTPase binding domain (RBD), residues 1746-1852 (domain or fragment, human, UniProt O43157 1746-1852, looked up)
chain: B4 chain with Y70L
Ka (Rnd1 GTPase Y114F): 180000 M⁻¹ | Kd (Rnd1 GTPase Y114F): 5.5 µM | dH (Rnd1 GTPase Y114F): -2.5 kcal/mol | Ka [5]: 180000 M⁻¹ | Kd [5]: 5.5 µM | dH [5]: -6.7 kcal/mol | Ka [6]: 40000 M⁻¹ | Kd [6]: > 20 µM | dH [6]: -0.2 kcal/mol

B6: plexin-D1 RBD Y1618L (domain or fragment)
chain: B7 chain with Y66L
Ka [5]: 190000 M⁻¹ | Kd [5]: 5.2 µM | dH [5]: -3.1 kcal/mol | Ka [6]: 70000 M⁻¹ | Kd [6]: 14.2 µM | dH [6]: -1.6 kcal/mol
